Drawing on article PMC6277429, this text covers binding for five sequences.

Holding throughout (experiment): EMSA
Conditions in all cases: 10 mM Tris pH 7.5, 100 mM KCl (Fig. 3 legend; not in Methods), 1 mM DTT, 2.5% glycerol, 20 mM MgCl2, 500 ng poly(dI-dC), 0.05% NP-40; 30 nM DNA; 10 min room …

The target of series [1] is T1, His-GlnR (Mycobacterium smegmatis mc2 155) (UniProt A0R4C4).
T1 sequence: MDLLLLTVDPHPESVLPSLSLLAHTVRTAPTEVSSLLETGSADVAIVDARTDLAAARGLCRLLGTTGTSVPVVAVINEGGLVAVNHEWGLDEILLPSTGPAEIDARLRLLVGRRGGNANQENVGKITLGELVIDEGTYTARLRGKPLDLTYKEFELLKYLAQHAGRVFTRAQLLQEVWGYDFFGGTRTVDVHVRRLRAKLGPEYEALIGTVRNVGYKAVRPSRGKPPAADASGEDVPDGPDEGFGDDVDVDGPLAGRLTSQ

For series [2], the target named is T2, MBP-NnaR (Mycobacterium smegmatis mc2 155) (UniProt A0QPK7).
T2 sequence: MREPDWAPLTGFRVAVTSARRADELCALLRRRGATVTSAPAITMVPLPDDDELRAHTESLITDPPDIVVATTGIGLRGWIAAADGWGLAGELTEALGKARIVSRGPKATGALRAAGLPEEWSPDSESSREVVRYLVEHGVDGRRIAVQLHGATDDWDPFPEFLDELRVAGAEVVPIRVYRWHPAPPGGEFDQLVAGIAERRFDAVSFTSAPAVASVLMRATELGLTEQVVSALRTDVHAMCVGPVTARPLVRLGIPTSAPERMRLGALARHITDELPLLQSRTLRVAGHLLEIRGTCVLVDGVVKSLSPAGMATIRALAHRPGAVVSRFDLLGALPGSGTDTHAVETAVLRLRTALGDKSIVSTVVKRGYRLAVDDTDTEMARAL

In series [3] the target is T3, MBP-NnaR;His-GlnR (Mycobacterium smegmatis mc2 155;Mycobacterium smegmatis mc2 155) (UniProt A0QPK7+A0R4C4).
T3 sequence 1: T2 sequence
T3 sequence 2: T1 sequence

As to “GACCCCTGGTGACCGCGTAACGGCTTTCTCACAGGTGCCCGCCGATCCAGGTGAGCGGAATTTCACGGCCGGGTCATCGCGCGCAGTGTCGGGGCAATAATCGCTTTCTAGCGTGCTCGCATG (double strand) [msmeg_0433 promoter]”, the binding result in series [1] was “binds more weakly”; in series [2] it was “binds”.

Take “GCAGCTTGGACCACCTATTTCCACGCCATGAACGACCTCGCCCGAAAATTGATGAGCGCGTTCGCCCTCGGGTTGAGGTTGCCCGCCGACTACTTCGTCGACACCATCGA (double strand) [msmeg_4008 promoter]”: the binding result in series [3] is “binds”; in series [1], “no binding”; in series [2], “no binding”.

Regarding “ATCTGCATCATCTCGCGACTTTGGTCAGCTGTCGCCCTGGCGCGCCGAGGCACGGCAGGTTTCGCACGCCCAGGCATCTCACAGCCGACGCTGAGCTGATGTGCGCAGATGGCAACACCGATGCATAGGTCAAGTCGCCGAACCGCAATCTGGGCGCGACACGGTCTAGGGAACTGTCCATCGGGTCCATCGGAAGGTTGCACCCAATG (double strand) [msmeg_5360 promoter]”, the binding result in series [3] is given as “binds”; in series [1], “no binding”; in series [2], “no binding”.

With “CATAGGGCGAGGCTAAGAACCCGATATTGCCGCGATGTCGCGCTGTGTGAAGCCCCCATCACGGTGTGCTCACGTCTTCGGCAACGCACATGTGAGGTCCCCGACCGGTGAGCTCTCCGGACCACAGTCAGGCCACAACCGCC (double strand) [msmeg_0427 promoter]”, in series [2], the binding entry is recorded as “binds”.

For “CGTGTGGCCCTTTCGTTCGATCCCGAGCACAGAGATTAACTGTACTGACCACGCAAGGCGAGACGTCGGCACTCGTGACGTCCTCACACGGTTTTCACAACGCACTCACAAGACATGTGAGCAGCACGTAGCGGACCCGGTACGCCTGGGCAATGGTGCGGCAACGGGGTTCTCCGACGCTGAACGCATG (double strand) [msmeg_5765 promoter]”, the binding result is “binds more weakly” in series [1] and “binds” in series [2].
